Test results as given in the Immune Epitope Database (IEDB).

Tests used:
HLA-A*02:01 [1] = assay: IEDB peptide-MHC binding, purified MHC/competitive/radioactivity; filed as Kd, often an IC50 or EC50 that approximates it; ≥ and ≤ were set here for values at or beyond the usual limits of such assays
HLA-A*02:01 [2] = assay: IEDB peptide-MHC binding, purified MHC/competitive/fluorescence; filed as Kd, often an IC50 or EC50 that approximates it; ≥ and ≤ were set here for values at or beyond the usual limits of such assays
HLA-B*35:01 = assay: IEDB peptide-MHC binding, purified MHC/competitive/radioactivity; filed as Kd, often an IC50 or EC50 that approximates it; ≥ and ≤ were set here for values at or beyond the usual limits of such assays
HLA-B*54:01 = assay: as above
HLA-B*07:02 = assay: as above
HLA-B*53:01 = assay: as above
HLA-B*51:01 = assay: as above
HLA-B*48:01 = assay: IEDB peptide-MHC binding, purified MHC/direct/fluorescence; filed as Kd, often an IC50 or EC50 that approximates it; ≥ and ≤ were set here for values at or beyond the usual limits of such assays
[3] = source organism: Lassa virus Josiah
[4] = source organism: Vaccinia virus WR
[5] = source organism: Lymphocytic choriomeningitis virus (strain WE)
[6] = source organism: Mammarenavirus choriomeningitidis
[7] = source organism: Dengue virus 2 Jamaica/1409/1983
[8] = source organism: Mammarenavirus lassaense

Work on AACRAAGL yielded a Kd (HLA-A*02:01 [1]; source organism: Hepatitis C virus (isolate 1)) of at least 50000 nM.
Work on ALFYKDGKL yielded a Kd (HLA-A*02:01 [2]; source organism: Variola major virus) of 533 nM.
For ALMEWLKTRPI, the Kd (HLA-A*02:01 [2]; source organism: Influenza A virus (A/swine/Hannover/1/1981(H1N1))) was 16.9 nM.
ATQPGLTSAV was tested, and the Kd (HLA-A*02:01 [1]; [3]) was at least 25000 nM.
DLFATQPGL showed a Kd (HLA-A*02:01 [1]; [3]) of 12500 nM.
DLKPDNILL was tested, and the Kd (HLA-A*02:01 [2]; source organism: Plasmodium yoelii yoelii) was 154 nM.
With ELNAELSDKL the Kd (HLA-A*02:01 [2]; [4]) was at least 20000 nM.
For ELTLTNTSI, the Kd (HLA-A*02:01 [1]; [3]) was 12500 nM.
EPVESCPLM showed a Kd (HLA-B*35:01; [5]) of 26.7 nM, a Kd (HLA-B*54:01; [5]) of at least 78100 nM and a Kd (HLA-B*07:02; [5]) of 5100 nM. For the same sequence, the Kd (HLA-B*53:01; [5]) was 177 nM and the Kd (HLA-B*51:01; [5]) was 1920 nM.
With FATCGLFAL the Kd (HLA-B*35:01; [6]) was 736 nM, the Kd (HLA-B*54:01; [6]) was 6300 nM and the Kd (HLA-B*07:02; [6]) was 8620 nM. The Kd (HLA-B*53:01; [6]) was 8690 nM and the Kd (HLA-B*51:01; [6]) was at least 27000 nM.
FRKGSSIGK was tested, and the Kd (HLA-B*48:01; source organism: dengue virus type 1) was at least 20000 nM.
HPLSINVSGV gave a Kd (HLA-B*35:01; [4]) of at least 54200 nM, a Kd (HLA-B*54:01; [4]) of 120 nM and a Kd (HLA-B*07:02; [4]) of 3840 nM. The Kd (HLA-B*53:01; [4]) was 18800 nM and the Kd (HLA-B*51:01; [4]) was at least 29600 nM.
Work on IPFDDIVRTM yielded a Kd (HLA-B*35:01; [4]) of 192 nM, a Kd (HLA-B*54:01; [4]) of 4250 nM and a Kd (HLA-B*07:02; [4]) of 2940 nM. It also gave a Kd (HLA-B*53:01; [4]) of 1020 nM and a Kd (HLA-B*51:01; [4]) of 8690 nM.
IPVDLVKSSF was tested, and the Kd (HLA-B*35:01; [4]) was 5.43 nM, the Kd (HLA-B*54:01; [4]) was 297 nM and the Kd (HLA-B*07:02; [4]) was 20.5 nM. For the same sequence, the Kd (HLA-B*53:01; [4]) was 8.61 nM and the Kd (HLA-B*51:01; [4]) was 5380 nM.
Sequence KMTLFKSIL has a Kd (HLA-A*02:01 [2]; [4]) of 1280 nM.
KPKFCLIDGM showed a Kd (HLA-B*35:01; [4]) of at least 22400 nM, a Kd (HLA-B*54:01; [4]) of 14500 nM and a Kd (HLA-B*07:02; [4]) of 80.2 nM. For the same sequence, the Kd (HLA-B*53:01; [4]) was 11900 nM and the Kd (HLA-B*51:01; [4]) was at least 69600 nM.
LLMDCSGSI was tested, and the Kd (HLA-A*02:01 [2]; source organism: Plasmodium falciparum) was 1.3 nM.
LLNATDIAVA showed a Kd (HLA-A*02:01 [1]; source organism: Human immunodeficiency virus 1) of 427 nM.
Work on LPESDLDKV yielded a Kd (HLA-B*35:01; [4]) of at least 22600 nM, a Kd (HLA-B*54:01; [4]) of 2290 nM and a Kd (HLA-B*07:02; [4]) of 7810 nM. The Kd (HLA-B*53:01; [4]) was 7280 nM and the Kd (HLA-B*51:01; [4]) was 6570 nM.
In the case of LPETLETLLL, the Kd (HLA-B*53:01; [7]) is reported as 37.6 nM and the Kd (HLA-B*51:01; [7]) is reported as 11000 nM.
In the case of LPLPWAAGA, the Kd (HLA-B*51:01; source organism: Dengue virus 4 Philippines/H241/1956) is reported as 1420 nM.
LRWLVERRF gave a Kd (HLA-B*48:01; source organism: West Nile virus) of at least 20000 nM.
Work on MLMPRQKI yielded a Kd (HLA-A*02:01 [2]; source organism: Influenza A virus (A/turkey/Wisconsin/1968(H5N9))) of 1530 nM.
MLWTTDKHV showed a Kd (HLA-A*02:01 [2]; source organism: Human alphaherpesvirus 1 strain 17) of 1290 nM.
MPDCGMSVLA gave a Kd (HLA-B*35:01; [8]) of 92.2 nM, a Kd (HLA-B*54:01; [8]) of 105 nM and a Kd (HLA-B*07:02; [8]) of 3880 nM. For the same sequence, the Kd (HLA-B*53:01; [8]) was 442 nM and the Kd (HLA-B*51:01; [8]) was 9180 nM.
For NAWKVSCTI, the Kd (HLA-B*53:01; [7]) was 36 nM and the Kd (HLA-B*51:01; [7]) was 55.3 nM.
NMETLNMTM was tested, and the Kd (HLA-A*02:01 [1]; [3]) was 1390 nM.
In the case of NPDNTIAVI, the Kd (HLA-B*35:01; [4]) is reported as 2.65 nM, the Kd (HLA-B*54:01; [4]) is reported as 2210 nM and the Kd (HLA-B*07:02; [4]) is reported as 233 nM. For the same sequence, the Kd (HLA-B*53:01; [4]) was 1.42 nM and the Kd (HLA-B*51:01; [4]) was 1730 nM.
